Measurements from doi:10.1101/2023.09.17.558134 (bioRxiv, 2023).

Tests used:
σ70 (purified) = σ70 (purified) (E. coli, UniProt P00579 1-613); assay: cryo-EM structure
[1] = molecular target: RNA polymerase β subunit (in the purified holoenzyme) (E. coli, UniProt P0A8V2 1-1342); assay: cryo-EM structure
RNA polymerase β subunit (in the purified holoenzyme), sequence (P0A8V2 whole entry): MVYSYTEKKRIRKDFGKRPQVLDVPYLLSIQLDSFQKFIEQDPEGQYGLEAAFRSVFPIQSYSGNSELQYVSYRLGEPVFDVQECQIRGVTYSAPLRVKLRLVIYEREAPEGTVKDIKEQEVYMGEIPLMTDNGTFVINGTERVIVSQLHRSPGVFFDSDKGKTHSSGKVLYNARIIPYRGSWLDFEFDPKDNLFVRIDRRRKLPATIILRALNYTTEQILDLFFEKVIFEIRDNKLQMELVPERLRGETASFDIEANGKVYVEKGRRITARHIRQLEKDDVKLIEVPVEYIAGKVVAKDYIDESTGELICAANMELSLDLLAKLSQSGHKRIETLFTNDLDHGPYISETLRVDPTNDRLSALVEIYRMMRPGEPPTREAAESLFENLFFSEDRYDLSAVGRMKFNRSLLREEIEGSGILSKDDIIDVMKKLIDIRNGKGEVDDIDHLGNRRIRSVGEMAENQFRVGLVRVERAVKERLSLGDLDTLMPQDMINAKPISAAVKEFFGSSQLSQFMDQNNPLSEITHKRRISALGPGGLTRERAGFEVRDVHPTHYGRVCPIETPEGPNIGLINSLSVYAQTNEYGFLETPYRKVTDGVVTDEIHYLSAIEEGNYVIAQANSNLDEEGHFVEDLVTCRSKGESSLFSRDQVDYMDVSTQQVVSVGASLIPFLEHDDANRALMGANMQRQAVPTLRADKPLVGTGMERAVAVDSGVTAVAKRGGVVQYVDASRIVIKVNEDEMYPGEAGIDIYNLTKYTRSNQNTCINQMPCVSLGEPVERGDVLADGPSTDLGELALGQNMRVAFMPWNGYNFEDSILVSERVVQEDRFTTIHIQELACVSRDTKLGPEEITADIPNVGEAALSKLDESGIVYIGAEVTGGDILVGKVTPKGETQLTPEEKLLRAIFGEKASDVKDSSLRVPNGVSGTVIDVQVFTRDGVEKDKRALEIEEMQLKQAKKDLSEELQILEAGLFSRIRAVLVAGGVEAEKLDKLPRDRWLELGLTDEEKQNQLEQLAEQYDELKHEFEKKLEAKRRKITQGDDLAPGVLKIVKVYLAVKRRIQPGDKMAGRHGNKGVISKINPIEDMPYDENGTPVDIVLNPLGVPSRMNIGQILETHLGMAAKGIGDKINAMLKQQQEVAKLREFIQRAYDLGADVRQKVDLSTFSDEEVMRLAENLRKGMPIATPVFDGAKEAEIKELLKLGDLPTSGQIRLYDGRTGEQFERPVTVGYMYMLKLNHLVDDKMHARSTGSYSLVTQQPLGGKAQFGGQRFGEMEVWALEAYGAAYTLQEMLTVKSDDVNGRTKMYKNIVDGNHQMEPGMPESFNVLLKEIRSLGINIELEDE

σ70 (purified), sequence (P00579 whole entry): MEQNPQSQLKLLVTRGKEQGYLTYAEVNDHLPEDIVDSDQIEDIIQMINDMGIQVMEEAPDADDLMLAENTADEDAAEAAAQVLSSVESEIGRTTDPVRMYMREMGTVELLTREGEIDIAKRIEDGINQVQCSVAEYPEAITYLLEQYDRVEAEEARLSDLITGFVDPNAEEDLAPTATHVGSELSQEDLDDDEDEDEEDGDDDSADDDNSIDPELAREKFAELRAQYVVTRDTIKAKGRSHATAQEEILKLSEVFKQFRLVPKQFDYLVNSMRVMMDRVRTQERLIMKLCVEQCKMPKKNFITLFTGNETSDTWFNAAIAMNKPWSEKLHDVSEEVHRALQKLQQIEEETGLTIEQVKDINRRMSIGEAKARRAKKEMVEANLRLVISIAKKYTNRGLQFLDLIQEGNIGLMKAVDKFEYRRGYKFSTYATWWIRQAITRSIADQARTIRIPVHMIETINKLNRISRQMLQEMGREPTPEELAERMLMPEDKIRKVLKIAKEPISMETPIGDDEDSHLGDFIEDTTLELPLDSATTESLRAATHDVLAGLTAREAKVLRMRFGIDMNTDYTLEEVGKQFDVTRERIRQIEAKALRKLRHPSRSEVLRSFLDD

B1: CedA (purified recombinant) (natural protein)
chain: MKKPLRQQNRQIISYVPRTEPAPPEHAIKMDSFRDVWMLRGKYVAFVLMGESFLRSPAFTVPESAQRWANQIRQEGEVTE
σ70 (purified)
  binding result: binds
[1]
  binding result: binds
